Results: US20190218309A1 (Chugai, published 2019)
Values belong to the binder of their own block, whether it stands above or below them.

How the values were obtained:
[1] = molecular target: T1, soluble human IL-6 receptor (hsIL-6R) (human, UniProt P08887 20-357); assay: ECL sandwich: biotinylated Fv4-IgG1 on streptavidin plate captures hsIL-6R, detected with ruthenium-labelled PHX-F29
T1 construct: also called hIL-6R
T1 sequence: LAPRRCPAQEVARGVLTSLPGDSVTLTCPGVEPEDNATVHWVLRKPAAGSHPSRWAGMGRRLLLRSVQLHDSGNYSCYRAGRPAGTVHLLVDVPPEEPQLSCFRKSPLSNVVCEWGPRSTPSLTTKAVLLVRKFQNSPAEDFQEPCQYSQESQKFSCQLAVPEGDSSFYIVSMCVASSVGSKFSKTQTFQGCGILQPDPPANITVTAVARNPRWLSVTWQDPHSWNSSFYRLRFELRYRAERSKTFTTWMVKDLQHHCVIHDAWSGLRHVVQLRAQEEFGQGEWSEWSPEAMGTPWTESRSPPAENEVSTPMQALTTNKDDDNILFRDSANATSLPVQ
Method: Whether or not two types of antibodies can bind to a single antigen simultaneously was evaluated by an electrochemiluminescence method. […] After washing, 100 μL of the hsIL-6R solutions prepared at 0, 0.2, 1, 5, and 25 μg/mL was added, and they were allowed to react at room temperature for one hour. […] After washing, 150 μL of Read Buffer T (×4) (Meso Scale Discovery) was dispensed into each well, and this was immediately followed by chemiluminescence measurement using the SECTOR IMAGER 2400 Reader (Meso Scale Discovery).

[2] = molecular target: T2, soluble mouse FcRn (mFcRn), with mouse β2-microglobulin (mouse, UniProt Q61559 22-290; P01887 21-119); assay: SPR (Biacore T100), mouse FcRn immobilised on a CM4 chip, Fv4-IgG1 50 µg/mL alone or with hsIL6R 12.5 µg/mL as analyte, pH 7.4, 25 °C; bound amount normalised to 100 [i]
T2 sequence: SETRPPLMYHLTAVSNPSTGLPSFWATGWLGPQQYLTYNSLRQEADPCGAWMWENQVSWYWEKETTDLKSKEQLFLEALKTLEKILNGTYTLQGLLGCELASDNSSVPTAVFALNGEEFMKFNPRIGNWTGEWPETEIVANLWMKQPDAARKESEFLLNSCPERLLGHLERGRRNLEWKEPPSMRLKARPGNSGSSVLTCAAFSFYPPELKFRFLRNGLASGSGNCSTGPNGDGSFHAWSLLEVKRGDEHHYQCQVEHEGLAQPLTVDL
T2 sequence (b2m): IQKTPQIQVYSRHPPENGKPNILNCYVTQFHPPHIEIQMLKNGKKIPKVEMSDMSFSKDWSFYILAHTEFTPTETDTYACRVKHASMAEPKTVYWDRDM
Method: (§1) Binding of an antigen-antibody immune complex with FcRn was assessed using Biacore T100 (GE Healthcare). […] Subsequently, a 20 mM Tris-HCl, 150 mM NaCl, pH 9.0 or pH 9.5 solution was injected to regenerate the sensor chip. A 50 mmol/L Na-Phosphate (phsophoric acid), 150 mmol/L NaCl, 0.05% Tween20, pH 7.4 buffer was used as the running buffer, and binding between the antigen-antibody immune complex and FcRn was measured at 25° C.

[3] = molecular target: soluble human FcRn (hFcRn), complex with β2-microglobulin (human, UniProt P55899 24-290; P61769 21-119); assay: SPR (Biacore T100), human FcRn immobilised on a CM4 chip, Fv4-F22 10 µg/mL alone or with hsIL6R 2.5 µg/mL as analyte, pH 7.4, 25 °C; bound amount normalised to 100 [i]
Method: (§2) Binding of an antigen-antibody immune complex with human FcRn was assessed using Biacore T100 (GE Healthcare).
(§3) Subsequently, a 20 mM Tris-HCl, 150 mM NaCl, pH 9.0 or pH 9.5 solution was injected to regenerate the sensor chip. A 50 mmol/L Na-Phosphate (phosphoric acid), 150 mmol/L NaCl, 0.05% Tween20, pH 7.4 buffer was used as the running buffer, and binding between the antigen-antibody immune complex and FcRn was measured at 25° C.

[4] = molecular target: T1, soluble human IL-6 receptor (hsIL-6R); assay: SPR (Biacore T100), 25 C, pH 7.4; Fv4-F22 10 µg/mL with or without hsIL6R 2.5 µg/mL over immobilized hFcRn
Method: as §2, §3

[5] = molecular target: T2, soluble mouse FcRn (mFcRn), with mouse …; assay: SPR (Biacore T100), mouse FcRn immobilised on a CM4 chip, clone 278-IgG1 50 µg/mL as analyte, pH 7.4, 25 °C; bound amount normalised to 100 [ii]
Method: as §1

[6] = molecular target: T3, human IgE (variable region derived from an anti-human glypican3 antibody) (human); assay: SPR (Biacore T200), 37 C; ratio of KD values
T3 construct: also called hIgE
Method: Running buffers used in the assay were:
A chemically-synthetized peptide having a human glypican 3 protein-derived sequence (SEQ ID NO: 47) whose C-terminal Lys is biotinylated (hereinafter abbreviated as “biotinylated GPC3 peptide”) was added in an appropriate amount and immobilized onto Sensor chip SA (GE Healthcare) based on the affinity between biotin and streptavidin. Human IgE was immobilized onto the chip by injecting it at an appropriate concentration so as to be trapped by the biotinylated GPC3 peptide. […] Then, 10 mmol/L glycine-HCl (pH 1.5) was injected to regenerate the sensor chip. The interaction was always measured at 37° C. The measurement result was analyzed by curve fitting using Biacore T200 Evaluation Software (GE Healthcare) to calculate the association rate constant ka (1/Ms) and dissociation rate constant kd (1/s). The dissociation constant KD (M) was calculated from the above-described constants.

GC-hIgA-MYC = molecular target: T4, GC-hIgA-MYC (human); assay: SPR (Biacore T200), 25 C, pH 7.4, 1.2 mM Ca; 200 nM antibody with or without 200 nM antigen over captured human FcγRIIIaV; immune complex shown by slower dissociation
T4 construct: also called hIgA-v2
Method: Binding of an antigen-antibody immune complex with FcγR was assessed using Biacore T200 (GE Healthcare).
A suitable amount of the Penta-His Antibody (QIAGEN) was immobilized onto Sensor chip CM5 (GE Healthcare) by an amine coupling method; and a suitable concentration of his-tagged human FcγR IIIaV was injected. Human FcγR IIIaV was immobilized onto the chip by allowing the penta-His antibody immobilized on the chip to capture human FcγR IIIaV. A solution containing 200 nM antibody or a mixed solution containing 200 nM antibody and 200 nM antigen was injected as the analyte; and it was allowed to interact with human FcγR IIIaV immobilized on the sensor chip. Subsequently, a 10 mmol/L Glycine-HCl, pH2.5 solution was injected to regenerate the sensorchip. A 1.2 mmol/L CaCl₂/0.05% tween20, 20 mmol/L ACES, 150 mmol/L NaCl, pH 7.4 buffer was used as the running buffer, and binding between the antigen-antibody immune complex and FcγR was measured at 25° C.

[7] = molecular target: Human IgA (hIgA), H (WT)-IgA1 / L (WT) (human); assay: >=
Human IgA (hIgA), H (WT)-IgA1 / L (WT) (human), sequence (VH, as listed by the source): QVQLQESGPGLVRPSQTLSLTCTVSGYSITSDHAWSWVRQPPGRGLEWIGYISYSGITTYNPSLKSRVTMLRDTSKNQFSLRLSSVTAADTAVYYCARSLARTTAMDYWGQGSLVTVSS

T3 sequence (heavy, as listed by the source): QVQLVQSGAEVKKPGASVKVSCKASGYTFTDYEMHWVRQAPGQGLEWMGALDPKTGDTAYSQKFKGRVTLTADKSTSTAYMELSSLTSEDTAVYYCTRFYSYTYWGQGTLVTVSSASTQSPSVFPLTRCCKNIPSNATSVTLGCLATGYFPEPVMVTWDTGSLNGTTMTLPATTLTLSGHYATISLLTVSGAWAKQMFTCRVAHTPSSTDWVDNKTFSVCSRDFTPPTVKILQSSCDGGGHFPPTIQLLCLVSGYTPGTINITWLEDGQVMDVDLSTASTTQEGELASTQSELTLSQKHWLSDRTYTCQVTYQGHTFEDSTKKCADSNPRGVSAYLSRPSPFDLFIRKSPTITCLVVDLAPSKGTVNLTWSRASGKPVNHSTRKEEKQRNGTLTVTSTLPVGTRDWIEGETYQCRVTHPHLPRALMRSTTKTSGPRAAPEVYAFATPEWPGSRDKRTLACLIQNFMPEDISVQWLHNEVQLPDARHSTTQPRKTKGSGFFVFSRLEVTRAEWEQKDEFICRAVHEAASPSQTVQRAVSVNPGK
T4 sequence (heavy, as listed by the source): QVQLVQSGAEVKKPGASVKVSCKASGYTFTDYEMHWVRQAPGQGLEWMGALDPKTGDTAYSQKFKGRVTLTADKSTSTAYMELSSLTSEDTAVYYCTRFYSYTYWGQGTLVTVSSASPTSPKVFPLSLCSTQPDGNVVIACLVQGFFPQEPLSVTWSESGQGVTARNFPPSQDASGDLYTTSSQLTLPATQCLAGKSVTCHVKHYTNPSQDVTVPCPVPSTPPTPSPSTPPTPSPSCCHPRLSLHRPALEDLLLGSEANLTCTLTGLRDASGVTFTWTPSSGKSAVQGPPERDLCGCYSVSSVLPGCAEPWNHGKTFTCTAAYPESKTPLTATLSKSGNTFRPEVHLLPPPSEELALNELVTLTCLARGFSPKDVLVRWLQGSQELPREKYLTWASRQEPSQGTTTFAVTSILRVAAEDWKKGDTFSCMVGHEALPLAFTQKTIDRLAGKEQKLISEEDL

binding result [1]: binds
binding result [2]: binds
B1: Fv4-IgG1 (antibody)
heavy: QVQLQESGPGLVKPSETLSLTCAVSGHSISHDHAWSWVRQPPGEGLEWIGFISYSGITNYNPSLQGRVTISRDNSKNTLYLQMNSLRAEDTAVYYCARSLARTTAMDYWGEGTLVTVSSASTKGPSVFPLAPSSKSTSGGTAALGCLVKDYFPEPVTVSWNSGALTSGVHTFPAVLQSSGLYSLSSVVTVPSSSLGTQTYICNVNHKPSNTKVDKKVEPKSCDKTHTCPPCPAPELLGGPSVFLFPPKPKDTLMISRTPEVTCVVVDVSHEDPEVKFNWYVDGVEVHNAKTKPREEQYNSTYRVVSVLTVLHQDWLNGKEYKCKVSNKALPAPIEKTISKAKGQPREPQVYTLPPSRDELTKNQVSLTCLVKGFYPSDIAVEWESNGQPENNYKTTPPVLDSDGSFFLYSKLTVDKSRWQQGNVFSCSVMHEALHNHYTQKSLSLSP
light: DIQMTQSPSSLSASVGDSVTITCQASTDISSHLNWYQQKPGKAPELLIYYGSHLLSGVPSRFSGSGSGTDFTFTISSLEAEDAATYYCGQGNRLPYTFGQGTKVEIERTVAAPSVFIFPPSDEQLKSGTASVVCLLNNFYPREAKVQWKVDNALQSGNSQESVTEQDSKDSTYSLSSTLTLSKADYEKHKVYACEVTHQGLSSPVTKSFNRGEC
notes: pH-dependent anti-human IL-6 receptor antibody

binding result [3]: binds
binding result [4]: binds
B2: Fv4-F22 (antibody, human IgG1, kappa)
heavy: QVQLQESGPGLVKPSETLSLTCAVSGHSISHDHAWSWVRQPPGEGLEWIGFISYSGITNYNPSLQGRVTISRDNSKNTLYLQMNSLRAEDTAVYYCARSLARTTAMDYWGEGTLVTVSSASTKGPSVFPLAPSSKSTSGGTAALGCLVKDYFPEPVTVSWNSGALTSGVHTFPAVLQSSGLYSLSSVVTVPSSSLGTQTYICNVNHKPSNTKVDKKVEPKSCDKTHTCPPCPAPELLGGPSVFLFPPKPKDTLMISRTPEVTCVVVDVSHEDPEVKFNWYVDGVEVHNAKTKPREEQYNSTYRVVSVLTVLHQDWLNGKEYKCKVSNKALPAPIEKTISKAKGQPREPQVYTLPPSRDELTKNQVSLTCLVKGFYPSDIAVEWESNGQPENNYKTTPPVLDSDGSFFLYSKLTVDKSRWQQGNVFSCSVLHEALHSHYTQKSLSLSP
light: B1 light

binding result [5]: binds
pH dependency, KD (pH 5.8, 1.2 mM Ca)/KD (pH 7.4, 1.2 mM Ca) [6]: 842 ratio
pH/Ca dependency, KD (pH 5.8, 3 µM Ca)/KD (pH 7.4, 1.2 mM Ca) [6]: 1640 ratio
B3: clone 278 (antibody, human IgG1, kappa)
heavy: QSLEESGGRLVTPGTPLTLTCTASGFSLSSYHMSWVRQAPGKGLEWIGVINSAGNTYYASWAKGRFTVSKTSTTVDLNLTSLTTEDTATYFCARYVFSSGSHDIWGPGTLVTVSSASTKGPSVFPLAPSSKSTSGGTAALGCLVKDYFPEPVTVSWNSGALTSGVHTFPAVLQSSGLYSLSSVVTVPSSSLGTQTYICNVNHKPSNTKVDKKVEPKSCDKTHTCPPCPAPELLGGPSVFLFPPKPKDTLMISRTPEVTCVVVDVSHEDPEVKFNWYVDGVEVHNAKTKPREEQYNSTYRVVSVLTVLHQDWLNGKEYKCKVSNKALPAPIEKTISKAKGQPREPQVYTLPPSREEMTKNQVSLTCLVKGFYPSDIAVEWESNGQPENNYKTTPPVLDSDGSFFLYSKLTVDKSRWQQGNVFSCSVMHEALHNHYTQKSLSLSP
light: AYDMTQTPASVEVAVGGTVTIKCQASQSIGSWLAWYQQKPGQPPKELIYGTSTLESGVPSRFIGSGSGTEFTLTISGVECADAATYYCQQGYSEDNIDNAFGGGTEVVVKRTVAAPSVFIFPPSDEQLKSGTASVVCLLNNFYPREAKVQWKVDNALQSGNSQESVTEQDSKDSTYSLSSTLTLSKADYEKHKVYACEVTHQGLSSPVTKSFNRGEC
notes: pH-dependent anti-human IgE antibody with a human IgG1 heavy chain constant region and a human light chain constant region

binding result (GC-hIgA-MYC): binds
Ca-dependent binding activity (fold) [7]: 100 times
B4: GA2-IgG1 (antibody, V domains shown)
VH: QVQLVQSGAEVKKPGSSVKVSCKASGGTFSSYAISWVRQAPGQGLEWMGGIIPIFGTANYAQKFQGRVTITADESTSTAYMELSSLRSEDTAVYYCARPRWETAISSDAFDIWGQGTMVTVSS
VL: DIQMTQSPSSLSASVGDRVTITCRASQSISDDLNWYQQKPGKAPKLLIYEASNLQSGVPSRFSGSGSGTDFTLTISSLQPEDFATYYCQQHSSSPLTFGQGTKVEIKR
notes: also called GA-IgG1
